Article PMC11367481 (eBioMedicine, 2024)

Biological target: ACE2-Fc, recombinant protein (Sino Biological 10108-H02H) (human, UniProt Q9BYF1)
Assay: BLI

B1: BTN3A2-L-His, recombinant protein (Sino Biological 13515-H08H) (natural protein)
chain: not shown
- Kd: 92.7 ± 0.359 nM
